The values below come from PMC4046564, “Reconstitution of dynein transport to the microtubule plus end by kinesin” (eLife, 2014).

To fix the notation:
T1: Kip2 (S. cerevisiae, UniProt P28743 1-706, differently phosphorylated forms (doublet on SDS-PAGE; not treated with phosphatase); Atto647N on the SNAP tag in the TIRF assays)
T1 construct: kinesin Kip2, S. cerevisiae; genomic kip2 locus modified by homologous recombination (8HIS-ZZ-Tev-KIP2-g-FLAG-ga-SNAP); also called Kip2-Atto647; kinesin; source: S. cerevisiae (strain RPY1099, GAL1 promoter), purified (IgG sepharose via ZZ tag, TEV release; for SEC Ni-NTA then IgG sepharose); not shown: His8, N-terminal, cleaved; ZZ, N-terminal, cleaved; SNAP, C-terminal, kept
T1 sequence (looked up): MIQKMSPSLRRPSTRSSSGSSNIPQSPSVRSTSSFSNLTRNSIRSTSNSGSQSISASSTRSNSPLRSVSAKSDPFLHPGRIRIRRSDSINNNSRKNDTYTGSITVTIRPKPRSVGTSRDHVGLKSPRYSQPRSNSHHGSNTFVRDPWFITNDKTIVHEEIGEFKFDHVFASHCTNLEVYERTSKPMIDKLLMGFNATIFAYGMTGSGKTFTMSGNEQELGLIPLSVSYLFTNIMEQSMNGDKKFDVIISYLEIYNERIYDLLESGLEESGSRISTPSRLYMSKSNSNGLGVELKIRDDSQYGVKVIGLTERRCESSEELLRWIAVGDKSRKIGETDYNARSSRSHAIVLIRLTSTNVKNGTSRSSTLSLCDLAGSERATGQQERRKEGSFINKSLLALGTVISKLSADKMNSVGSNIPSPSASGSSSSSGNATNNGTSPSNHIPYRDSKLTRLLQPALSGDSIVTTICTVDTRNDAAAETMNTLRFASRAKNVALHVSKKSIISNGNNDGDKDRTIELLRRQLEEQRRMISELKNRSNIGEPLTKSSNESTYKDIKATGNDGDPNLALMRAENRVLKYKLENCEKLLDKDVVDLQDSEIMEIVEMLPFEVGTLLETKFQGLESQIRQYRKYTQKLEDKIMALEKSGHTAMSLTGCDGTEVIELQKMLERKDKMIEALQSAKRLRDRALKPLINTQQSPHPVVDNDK

B1: Bim1 (natural protein, S. cerevisiae, UniProt P40013 1-344, looked up)
chain: MSAGIGESRTELLTWLNGLLNLNYKKIEECGTGAAYCQIMDSIYGDLPMNRVKFNATAEYEFQTNYKILQSCFSRHGIEKTVYVDKLIRCKFQDNLEFLQWLKKHWIRHKDESVYDPDARRKYRPIITNNSATKPRTVSNPTTAKRSSSTGTGSAMSGGLATRHSSLGINGSRKTSVTQGQLVAIQAELTKSQETIGSLNEEIEQYKGTVSTLEIEREFYFNKLRDIEILVHTTQDLINEGVYKFNDETITGHGNGNGGALLRFVKKVESILYATAEGFEMNDGEDELNDKNLGEHGTVPNQGGYANSNGEVNGNEGSNHDVIMQNDEGEVGVSNNLIIDEETF
notes: Bim1 (EB1 homolog), S. cerevisiae; open-reading frame amplified from genomic DNA; also called EB1 homolog; source: E. coli BL-21(DE3), purified (Strep-Tactin, TEV release); not shown: His6, N-terminal, cleaved; Strep, N-terminal, cleaved
B2: Bik1 (natural protein, S. cerevisiae, UniProt P11709 1-440, looked up)
chain: MDRYQRKIGCFIQIPNLGRGQLKYVGPVDTKAGMFAGVDLLANIGKNDGSFMGKKYFQTEYPQSGLFIQLQKVASLIEKASISQTSRRTTMEPLSIPKNRSIVRLTNQFSPMDDPKSPTPMRSFRITSRHSGNQQSMDQEASDHHQQQEFGYDNREDRMEVDSILSSDRKANHNTTSDWKPDNGHMNDLNSSEVTIELREAQLTIEKLQRKQLHYKRLLDDQRMVLEEVQPTFDRYEATIQEREKEIDHLKQQLELERRQQAKQKQFFDAENEQLLAVVSQLHEEIKENEERNLSHNQPTGANEDVELLKKQLEQLRNIEDQFELHKTKWAKEREQLKMHNDSLSKEYQNLSKELFLTKPQDSSSEEVASLTKKLEEANEKIKQLEQAQAQTAVESLPIFDPPAPVDTTAGRQQWCEHCDTMGHNTAECPHHNPDNQQFF
notes: Bik1 (Clip170 homolog), S. cerevisiae; open-reading frame amplified from genomic DNA; Eluted from Ni-NTA with imidazole; no removal of the tag is told; also called Clip170 homolog; source: sf21 insect cells (baculovirus), purified (Ni-NTA)
B3: Bik1ΔC (domain or fragment, S. cerevisiae, UniProt P11709 1-400, looked up)
chain: MDRYQRKIGCFIQIPNLGRGQLKYVGPVDTKAGMFAGVDLLANIGKNDGSFMGKKYFQTEYPQSGLFIQLQKVASLIEKASISQTSRRTTMEPLSIPKNRSIVRLTNQFSPMDDPKSPTPMRSFRITSRHSGNQQSMDQEASDHHQQQEFGYDNREDRMEVDSILSSDRKANHNTTSDWKPDNGHMNDLNSSEVTIELREAQLTIEKLQRKQLHYKRLLDDQRMVLEEVQPTFDRYEATIQEREKEIDHLKQQLELERRQQAKQKQFFDAENEQLLAVVSQLHEEIKENEERNLSHNQPTGANEDVELLKKQLEQLRNIEDQFELHKTKWAKEREQLKMHNDSLSKEYQNLSKELFLTKPQDSSSEEVASLTKKLEEANEKIKQLEQAQAQTAVESLPIF
notes: Bik1 (Clip170 homolog), S. cerevisiae, lacking the C-terminal 40 amino acids (zinc knuckle domain); also called Bik1ΔC construct lacking the C-terminal 40 amino acids; source: sf21 insect cells (baculovirus), purified (Ni-NTA)

The target in test [1] is Kip2 (S. cerevisiae) (UniProt P28743).
For test [2], the target named is B3. The experiment in a line: SEC; Superose 6 PC 3.2/30; indicated combinations of purified protein (100 picomoles each) pre-incubated at 1.1 μM for 10 min at 4°C; 50 mM Tris-HCl pH 8.0, 150 mM potassium acetate, 2 mM magnesium acetate, 1 mM EGTA, 5% glycerol, 1 mM DTT; fractions analysed by SDS-PAGE. As to conditions: both partners purified. On the technique in general: Size exclusion chromatography separates by hydrodynamic size, large species first.

The target of test [3] is B2. The test is described as above. The following applies: both partners purified.
For test [4], the target named is T1, Kip2. The test is described as above. As to conditions: both partners purified.

With GST-dynein_(331 kDa), P36022 1-4092, in test [1], the direction of dynein movements on dynamic microtubules (TIRF) with Lis1, Bik1, Bim1 and Kip2: proportion directed to the plus end; without Lis1 or Bik1 dynein moved to the minus end amounted to 90%.
B1: the binding result in test [2] and in test [3] was “binds” in each case.
With B2, the binding result in test [4] is given as “binds”.
As for B3, the binding result in test [4] is “binds”.
